Assay results: patent US20230263900A1, “DENDRIMER-DRUG CONJUGATE” (priority 2020, published 2023)

Assay: Pharmacokinetic studies of RHa-5 and RHa-15, single IV or SC administration, compared with RDV
Type: in vivo, animals (mammals)
Conditions: for F AUC(0-inf), plasma GS-441524 / F AUC(0-inf), plasma Remdesivir / F AUC(0-last), plasma GS-441524 / F AUC(0-last), plasma Remdesivir: relative to RDV IV
Protocol: Studies were undertaken to investigate the pharmacokinetic (PK) profile of two Remdesivir dendrimer conjugates following single intravenous (IV) or subcutaneous (SC) administration, and to compare them with that of Remdesivir (RDV).
The study consisted of two phases (PK Phase 1 and PK Phase 2) in a total of 6 animals (age 36-48 months) each part separated by a washout period: • PK Phase 1: Four animals (mammals) were studied. One male and one female were administered RHa-5 (BHALys [Lys]2[Lys]2[Lys]8[Lys]16[Lys]32[(α-NH-6N-TDA-Remdesivir)32(ε-NH-COPEG2000)32] 20% Remdesivir loading w/w) (test item) intravenously; and one male and one female were administered RHa-5 subcutaneously. Blood samples were taken over a period of 7 days. A minimum washout period of 14 days took place between the last blood sampling point of the PK Phase 1 and the start of PK Phase 2. • PK Phase 2: Six animals (mammals) were studied. One male and one female were administered RHa-15 (BHALys[Lys]2[Lys]4[Lys]8[Lys]16[Lys]32[(α-NH-3′ O-TDA-Remdesivir)32(ε-NH-COPEG2000)32] 18.63% Remdesivir loading w/w) (test item) intravenously; one male and one female were administered RHa-15 subcutaneously; and one male and one female were administered RDV (reference item). Blood samples were taken over a period of 7 days.
Formulation procedure: Test items RHa-5 and RHa-15 were reconstituted in Required volume of Water for injection (WFI), until a complete solution was obtained. The required volume of WFI was slowly added to RDV formulation (a lyophilate of 3.2% w/w RDV, 96.8% and sodium sulfobutylether-β-cyclodextrin adjusted to pH 3.5 with HCl) and shaken vigorously for 30 seconds. The solution was left for 20 minutes to ensure complete dissolution.
Administration: The clinical Remdesivir loading dose in humans is 200 mg. […] Allometric conversion of the dose from humans to small mammals results in an equivalent test dose of 6.17 mg/kg Remdesivir. Test item was administered as follows:
PK Phase 1: Two animal groups (A and B) of one male and one female each were administered test item RHa-5 at a Remdesivir equivalent dose of 6.17 mg/kg. Group A were administered the test item as a slow (30 seconds) intravenous bolus; and Group B were administered the test item over 30 seconds using the subcutaneous (SC) route into the back of the animal.
PK Phase 2: Three animal groups (C, D and E) of one male and one female each were included in this study phase. Groups C and D were administered test item RHa-15 at a Remdesivir equivalent dose of 6.17 mg/kg using the IV and SC routes, respectively. Group E were administered 6.17 mg/kg of RDV intravenously. IV administrations were done as a slow (30 seconds) bolus. SC administrations were done over 30 seconds.
Sampling schedule: Blood samples for PK analysis were collected as follows: • Day 1: pre-dose and at 15 min, 30 min, 1 h, 2 h, 4 h, 6 h, and 12 h after administration. • Days 2 to 8: 24, 48, 72, and 168 h after administration.
A blood volume of 2 mL was collected at each time point from the jugular vein with a 20-21G needle into a lithium heparin tube, and transferred into a tube containing 200 μL 0.15 M citric acid. Immediately following blood collection, the blood samples were mixed gently and kept on crushed ice until centrifugation at 1500 G for 10 min at 4° C. within 30 minutes of collection. Each plasma sample was stored frozen (˜80±10° C.).
The quantification range was 0.6 to 14400 ng/mL for Remdesivir and 0.6 to 14400 ng/mL for G441524.
Non-compartmental pharmacokinetic analysis was adopted to obtain the pharmacokinetic parameters from the blood concentration profiles.
The maximum concentration, Cmax, and time of maximum concentration, Tmax, were determined as the maximum measured concentration and its associated time. The area under the plasma concentration curve from 0 hours to the time of the last measurable concentration, AUC0-last, was calculated using linear trapezoidal estimation. […]

[1] = both sexes, in vivo, iv, 6.17 mg/kg
[2] = female, in vivo, iv, 6.17 mg/kg
[3] = IV, 6.17 mg/kg Remdesivir equivalent, female (4F)
[4] = IV, 6.17 mg/kg Remdesivir equivalent, female (4F; RDV 6F)
[5] = IV, 6.17 mg/kg Remdesivir equivalent, male (1M)
[6] = IV, 6.17 mg/kg Remdesivir equivalent, male (1M; RDV 3M)
[7] = IV, 6.17 mg/kg Remdesivir equivalent, mean of male and female
[8] = IV, 6.17 mg/kg Remdesivir equivalent, mean
[9] = SC, 6.17 mg/kg Remdesivir equivalent, female (5F)
[10] = SC, 6.17 mg/kg Remdesivir equivalent, male (2M)
[11] = SC, 6.17 mg/kg Remdesivir equivalent, mean

Compound: CCC(CC)COC(=O)[C@H](C)N[P@](=O)(OC[C@H]1O[C@@](C#N)(c2ccc3c(N)ncnn23)[C@H](O)[C@@H]1O)Oc1ccccc1 [RDV, 2-Ethylbutyl (2S)-2-{[(S)-{[(2R,3S,4R,5R)-5-(4-aminopyrrolo[2,1-f][1,2,4]triazin-7-yl)-5-cyano-3,4-dihydroxytetrahydrofuran-2-yl]methoxy}(phenoxy)phosphoryl]amino}propanoate]
- AUC(0-inf) [1]: 332 ng·h/mL
- AUC(0-t) [1]: 312 ng·h/mL
- Cmax [1]: 364 ng/mL
- Tmax [1]: 0.3 h
- Clast, plasma Remdesivir (both, in vivo, iv, 6.17 mg/kg): 2 ng/mL
- Time with plasma levels of Remdesivir greater than 10 ng/ml (both, in vivo, iv, 6.17 mg/kg): about 1 hour
- Time with plasma levels of Remdesivir greater than 100 ng/ml (both, in vivo, iv, 6.17 mg/kg): about 30 minutes
- t1/2last, plasma Remdesivir (both, in vivo, iv, 6.17 mg/kg): 7.3 h
- tlast, plasma Remdesivir (both, in vivo, iv, 6.17 mg/kg): 36 h
- AUC(0-inf) [2]: 293 ng·h/mL
- AUC(0-t) [2]: 265 ng·h/mL
- Cmax [2]: 267 ng/mL
- Tmax [2]: 0.25 h
- Vd [2]: 3920 L/kg
- concentration at 48 h [2]: 1.8 ng/mL
- t1/2last, plasma Remdesivir [2]: 10.7 h
- tlast, plasma Remdesivir [2]: 48 h
- Clearance from blood (in vivo, iv): rapidly cleared from blood
- AUC(0-inf) (male, in vivo, iv, 6.17 mg/kg): 370 ng·h/mL
- AUC(0-t) (male, in vivo, iv, 6.17 mg/kg): 360 ng·h/mL
- Cmax (male, in vivo, iv, 6.17 mg/kg): 462 ng/mL
- Tmax (male, in vivo, iv, 6.17 mg/kg): 0.25 h
- Vd (male, in vivo, iv, 6.17 mg/kg): 1130 L/kg
- concentration at 24 h (male, in vivo, iv, 6.17 mg/kg): 1.8 ng/mL
- t1/2last, plasma Remdesivir (male, in vivo, iv, 6.17 mg/kg): 3.9 h
- tlast, plasma Remdesivir (male, in vivo, iv, 6.17 mg/kg): 24 h

Compound: BHALys[Lys]2[Lys]4[Lys]8[Lys]16[Lys]32[(α-NH-3′O-TDA-Remdesivir)32(ε-NH-COPEG2000)32] [RHa-15]
- C0, plasma GS-441524 [3]: 1 ng/mL
- C0, plasma Remdesivir [3]: 691 ng/mL
- F AUC(0-inf), plasma GS-441524 [3]: 0.8 x-fold
- F AUC(0-inf), plasma Remdesivir [3]: 14.8 x-fold
- F AUC(0-last), plasma GS-441524 [3]: 0.7 x-fold
- F AUC(0-last), plasma Remdesivir [3]: 16.3 x-fold
- Clast, plasma GS-441524 [4]: 10.5 ng/mL
- Clast, plasma Remdesivir [4]: 1.8 ng/mL
- t1/2last, plasma GS-441524 [4]: 19.0 h
- t1/2last, plasma Remdesivir [4]: 10.1 h
- tlast, plasma GS-441524 [4]: 72 h
- tlast, plasma Remdesivir [4]: 72 h
- C0, plasma GS-441524 [5]: 1 ng/mL
- C0, plasma Remdesivir [5]: 664 ng/mL
- F AUC(0-inf), plasma GS-441524 [5]: 0.8 x-fold
- F AUC(0-inf), plasma Remdesivir [5]: 12.1 x-fold
- F AUC(0-last), plasma GS-441524 [5]: 0.7 x-fold
- F AUC(0-last), plasma Remdesivir [5]: 12.4 x-fold
- Clast, plasma GS-441524 [6]: 10.9 ng/mL
- Clast, plasma Remdesivir [6]: 1.8 ng/mL
- t1/2last, plasma GS-441524 [6]: 21.5 h
- t1/2last, plasma Remdesivir [6]: 10.0 h
- tlast, plasma GS-441524 [6]: 72 h
- tlast, plasma Remdesivir [6]: 72 h
- C0, plasma GS-441524 [7]: 1 ng/mL
- C0, plasma Remdesivir [7]: 677 ng/mL
- Clast, plasma GS-441524 [7]: 11 ng/mL
- Clast, plasma Remdesivir [7]: 2 ng/mL
- t1/2last, plasma GS-441524 [7]: 20.3 h
- t1/2last, plasma Remdesivir [7]: 10.0 h
- tlast, plasma GS-441524 [7]: 72 h
- tlast, plasma Remdesivir [7]: 2 h
- F AUC(0-inf), plasma GS-441524 [8]: 0.8 x-fold
- F AUC(0-inf), plasma Remdesivir [8]: 13.5 x-fold
- F AUC(0-last), plasma GS-441524 [8]: 1 x-fold
- F AUC(0-last), plasma Remdesivir [8]: 14 x-fold
- Clast, plasma GS-441524 [9]: 1 ng/mL
- Clast, plasma Remdesivir [9]: 2 ng/mL
- t1/2last, plasma GS-441524 [9]: 24.5 h
- t1/2last, plasma Remdesivir [9]: 31.5 h
- tlast, plasma GS-441524 [9]: 168 h
- tlast, plasma Remdesivir [9]: 168 h
- F AUC(0-inf), plasma GS-441524 [9]: 0.8 x-fold
- F AUC(0-inf), plasma Remdesivir [9]: 14.8 x-fold
- F AUC(0-last), plasma GS-441524 [9]: 0.8 x-fold
- F AUC(0-last), plasma Remdesivir [9]: 16.3 x-fold
- Clast, plasma GS-441524 [10]: 1 ng/mL
- Clast, plasma Remdesivir [10]: 2 ng/mL
- t1/2last, plasma GS-441524 [10]: 26.2 h
- t1/2last, plasma Remdesivir [10]: 41.3 h
- tlast, plasma GS-441524 [10]: 168 h
- tlast, plasma Remdesivir [10]: 168 h
- F AUC(0-inf), plasma GS-441524 [10]: 0.9 x-fold
- F AUC(0-inf), plasma Remdesivir [10]: 12.1 x-fold
- F AUC(0-last), plasma GS-441524 [10]: 0.9 x-fold
- F AUC(0-last), plasma Remdesivir [10]: 12.4 x-fold
- Clast, plasma GS-441524 [11]: 1 ng/mL
- Clast, plasma Remdesivir [11]: 2 ng/mL
- t1/2last, plasma GS-441524 [11]: 25.3 h
- t1/2last, plasma Remdesivir [11]: 36.4 h
- tlast, plasma GS-441524 [11]: 168 h
- tlast, plasma Remdesivir [11]: 168 h
- F AUC(0-inf), plasma GS-441524 [11]: 0.8 x-fold
- F AUC(0-inf), plasma Remdesivir [11]: 13.5 x-fold
- F AUC(0-last), plasma GS-441524 [11]: 1 x-fold
- F AUC(0-last), plasma Remdesivir [11]: 14 x-fold
- Plasma Remdesivir t1/2 and AUC compared to RDV delivered IV (delivered IV or SC): substantially extended plasma Remdesivir t1/2 and increased AUC
